Data as given in the supplement of paper PMC10567573.

B1: MLH1 (parent)
chain: YAHQMVRTDSREQKLDAFLQPLSK
B2: ESR2 (parent)
chain: KSCQACRLRKCYEVGMVKCGSRRE

Variants of: B1
Assay: protein stability index of a GFP-peptide fusion (GPS, HEK-293T) (PSI 1-6); higher = more stable
Details: c terminus: a fixed tail appended
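Further: lentivirally expressed fusions sorted by FACS into six bins by GFP to DsRed ratio, PSI derived from sequencing read proportions per bin multiplied by bin number.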

Variant	protein stability index
Q4M	2.51
Q4H	2.04
Q4S	2.42
Q4T	2.16
Q4G	2
Q4W	2.7
Q4R	1.93
Q4I	2.16
Q4K	2
Q4L	2.37
Q4A	2.1
Q4F	2
Q4C	2.07
Q4V	2.37
V6D	3.03
V6Q	2.71
V6L	2.48
V6I	2.43
V6T	2.7
V6F	2.19
V6Y	2.42
V6M	2.29
V6S	2.97

Variant	protein stability index
V6K	2.53
Q13F	1.72
Q13H	2.04
Q13M	2.06
Q13W	2.18
Q13I	1.94
Q13T	2.7
Q13R	2.78
Q13G	2.32
Q13C	1.54
Q13N	2.48
R11Q	2.84
R11F	2.51
R11T	3.34
R11G	2.78
R11I	2.1
R11L	1.95
R11C	2.59
R11P	2.46
R11W	1.33
T8W	1.83
T8S	2.71
T8P	2.19

Variant	protein stability index
T8I	2.49
T8L	2.43
T8F	2.12
T8D	2.78
T8G	2.69
T8H	2.04
T8C	2.27
M5L	2.49
M5H	2.53
M5S	3.02
M5F	2.34
M5Y	2.43
M5D	3.34
M5G	2.63
M5N	3.16
M5E	3.31
M5R	2.59
M5K	2.98
M5P	2.57
H3D	3.05
H3N	3.13
H3I	2.5
H3G	2.15

Variant	protein stability index
H3K	2.75
H3F	2.19
H3C	2.01
H3Y	2
H3L	2.19
Y1K	3.88
Y1F	2.12
Y1C	1.59
Y1S	3.88
Y1M	3.11
Y1D	4.12
Y1Q	3.97
Y1I	3.38
Y1R	3.12
Y1A	3.48
Y1N	2.95
Y1T	3.87
Y1L	3.16
Y1G	3.87
Y1W	2.66
Y1H	3.6
A2V	1.93
A2S	2.82

Variant	protein stability index
A2R	3.12
A2L	2.84
A2T	2.55
A2D	4.03
A2H	1.8
A2N	3.54
A2Q	2.74
A2Y	2.39
A2C	2.09
A2M	3.12
A2G	3.19
E12P	2.32
E12H	2.34
E12Y	1.98
E12I	1.82
E12C	2.19
E12N	2.37
E12T	2.29
E12A	2.37
E12F	1.74
E12R	2.53
E12M	1.87
E12W	1.6

Variant	protein stability index
E12G	2.2
E12D	3.18
E12V	2.42
E12S	2.32
E12L	2
D9W	1.8
D9A	2.18
D9V	1.89
D9N	2.53
D9M	2.49
D9R	2.54
D9S	2.54
D9P	2.29
D9L	2.15
D9H	2.75
D9T	1.99
D9Y	1.98
D9I	2.15
D9E	2.95
D9Q	2.7
D9C	2.46
S10W	1.66
S10I	3

Variant	protein stability index
S10L	1.72
S10A	2.97
S10T	2.39
S10R	2.51
S10Q	2.78
S10G	2.71
S10E	2.79
S10N	2.43
S10M	2.53
R7E	3.17
R7F	2.18
R7K	2.74
R7I	2.57
R7P	3.06
R7C	1.59
R7G	1.96
R7W	2.32
R7N	2.98
R7V	2.12
K14C	2.08
K14A	2.84
K14D	2.46
K14E	2.78

Variants of: B2
Assay: as above
Details: c terminus: a fixed tail appended

Variant	protein stability index
M16P	1.96
M16I	1.13
M16T	2.14
M16R	2.4
M16N	2.15
M16S	2.44
